The results in this text go back to paper PMC11358414.

The target of the test is DEP-Venus (DEP domain of Disheveled, DVL) (UniProt O14641). In words: NanoBiT-based DEP recruitment BRET assay (BRET titration). Particulars: HEK293A cells, FLAG-LgBiT-CAAX cotransfected, baseline-corrected …, parent: est. 0.38, read off a plot.

Regarding “FZD7-SmBiT, wild type (from UniProt O75084) F345A; H382A”, where the note is “value read at the right end of the fitted curve (Venus fluorescence about 27000 arb. units)”, the response was 0.08 net BRET.
For the substance “FZD7-SmBiT, wild type (from UniProt O75084) F345A; W386A”, the response (value read at the right end of the fitted curve (Venus fluorescence about 23000 arb. units)) is 0.1 net BRET.
